Measurements: patent US20130274441A1 (University of California, published 2013)
Changes are numbered by the printed parent chain.

Assays:
[1] = target: the molecule itself; experiment: Assembly column; screening of labeled lysates; self-assembly
Experimental: For fluorescence analysis, cells were lysed by sonication in 25 mM TRIS pH 7.5, 300 mM NaCl, 8.5 mM MgCl₂, 1 mM dithiothreitol (DTT) supplemented with 1 mM phenylmethanesulfonyl fluoride, and the lysates cleared by centrifugation. […] The labeling reaction was allowed to proceed at 37° C. for 30 min, after which the labeled lysates were analyzed by native PAGE or fluorescence SEC. […] Gels were imaged fluorescently using a Fotodyne gel imaging system equipped with appropriate LEDs and filters.

[2] = target: the molecule itself; experiment: analytical ultracentrifugation c(s) distribution at 4.8 and 2.4 mg mL^-1 (FIG. 4); self-assembly
[3] = target: the molecule itself; experiment: Assembly column; self-assembly
[4] = target: the molecule itself; experiment: analytical SEC of purified protein; self-assembly

B1: O3-33, construct with peptide tag for fluorescent labeling, in labeled E. coli lysate (designed binder)
chain: MSQAIGILELTSIAAGMELGDAMLKSANVDLLVSKTISPGKFLLMLGGDIGAIQQAIETGTSQAGELLVDSLVLANIHPSVLPAISGLNSVDKRQAVGIVETWSVAACISAADRAVKGSNVTLVRVHMAFGIGGKCYMVVAGDVSDVALAVTVASSSAGAYGLLVYASLIPRPHEAMWRQMVEG
modifications: peptide tag labeled with CoA-488 by AcpS
notes: also called octahedral design
binding result [1]: binds

B2: O3-33 with C-terminal (His)6 tag (designed binder)
chain: MSQAIGILELTSIAAGMELGDAMLKSANVDLLVSKTISPGKFLLMLGGDIGAIQQAIETGTSQAGELLVDSLVLANIHPSVLPAISGLNSVDKRQAVGIVETWSVAACISAADRAVKGSNVTLVRVHMAFGIGGKCYMVVAGDVSDVALAVTVASSSAGAYGLLVYASLIPRPHEAMWRQMVEGLEHHHHHH
notes: eight trimers self-assemble through the designed interface to a 24-subunit octahedral cage; Derived from PDB 3N79 with 9 mutations; also called 03-33; octahedral design
binding result [2]: binds

B3: T3-08, construct with peptide tag for fluorescent labeling, in labeled E. coli lysate (designed binder)
chain: MTEKEKMLAEKWYDANFDQTLINERLRAKVICFALNHTNPSATLKRKVLIDALFQTTTDNVSISIPFDTDYGWNVKLGKNVYVNTNCYFMDGGQITIGDNVFIGPNCGFYTATHPLNFHHRNEGFEKAGPIHIGSNTWFGGHVAVLPGVTIGEGSVIGAGSVVTKDIPPHSLAVGNPCKVVRKIDNDLPSETLNDETIK
modifications: peptide tag labeled with CoA-488 by AcpS
notes: also called tetrahedral design
binding result [1]: binds

B4: T3-10 with C-terminal (His)6 tag (designed binder)
chain: MTEKEKMLAEKWYDANFDQTLINERLRAKVICFALNHTNPVATMMRKVLIDALFQTTTDNVSISIPFDTDYGWNVKLGKNVYVNTNCYFMDGGQITIGDNVFIGPNCGFYTATHPLNFHHRNEGFEKAGPIHIGSNTWFGGHVAVLPGVTIGEGSVIGAGSVVTKDIPPHSLAVGNPCKVVRKIDNDLPSETLNDETIKLEHHHHHH
notes: Variant of T3-08 with 3 further mutations
binding result [3]: binds

B5: T3-08 with C-terminal (His)6 tag (designed binder)
chain: B4 chain with V41S, M44L, M45K
notes: four trimers assemble to a 12-subunit tetrahedral cage; Derived from PDB 3FTT with 8 mutations; also called tetrahedral design
binding result [4]: binds
